This note sets out measurements from patent US20080124811A1.

Substrate in assay [1]: T1, BNP single alanine substituted peptide, F11 to alanine (human)
T1 sequence (peptide, cyclic hBNP 1-32): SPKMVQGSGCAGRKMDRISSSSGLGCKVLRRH
Briefly: BIAcore SPR, AM1 captured on goat anti-human Fc, peptide at 10 nM, 1800 s dissociation. (In general: In SPR one partner is held on a chip, and binding of the other changes the refractive index at the surface.)

Substrate in assay [2]: T2, BNP single alanine substituted peptide, R13 to alanine (human)
T2 sequence (peptide, cyclic hBNP 1-32): T1 sequence (peptide, cyclic hBNP 1-32) with A11F, R13A
The description is as above.

Positions count from the first letter of the chain named.

B1: 106.3 AM1 chimeric antibody (antibody, V domains shown)
VH: QIQLVQSGPELRKPGETVKISCKGSGYTFTHYGINWVKQTPRKDLKWMGWINTHTGEAYYADDFKGRFAFSLETSANTAYLQINNLNNGDMGTYFCTRSHRFGLDYWGQGTSVTVSS
VL: DNVLTQSPPSLAVSLGQRATISCKANWPVDYNGDSYLNWYQQKPGQPPKFLIYAASNLESGIPARFSGSGSGTDFNLNIHPVEEEDAATYYCQQSNEDPFTFGSGTKLEIK
modifications: Conjugated to acridinium or biotinylated in the sandwich assays (Examples 4 and 7); the sites are not defined.
B1: the fold increase in off-rate against WT BNP in assay [1] and in assay [2] was greater than 10 fold throughout.
